The record followed here is PMC10279719.

Test [1] concerns the target 14-3-3σ (sigma) (human). In words: SPR; 14-3-3 isoforms amine coupled to a CM5 chip, tandem peptides as analytes (10 µM-10 nM for PEAK3 tandem-pS69, 20 µM-20 nM for all others); Biacore S200, 20 °C, HBS-TP; steady state, 1:1 model.
Test [2] addresses T1, full length PEAK3 (PEAK3^FL, residues 1-473), from E. coli, phosphorylated by Src (human), Q6ZS72.
T1 chain: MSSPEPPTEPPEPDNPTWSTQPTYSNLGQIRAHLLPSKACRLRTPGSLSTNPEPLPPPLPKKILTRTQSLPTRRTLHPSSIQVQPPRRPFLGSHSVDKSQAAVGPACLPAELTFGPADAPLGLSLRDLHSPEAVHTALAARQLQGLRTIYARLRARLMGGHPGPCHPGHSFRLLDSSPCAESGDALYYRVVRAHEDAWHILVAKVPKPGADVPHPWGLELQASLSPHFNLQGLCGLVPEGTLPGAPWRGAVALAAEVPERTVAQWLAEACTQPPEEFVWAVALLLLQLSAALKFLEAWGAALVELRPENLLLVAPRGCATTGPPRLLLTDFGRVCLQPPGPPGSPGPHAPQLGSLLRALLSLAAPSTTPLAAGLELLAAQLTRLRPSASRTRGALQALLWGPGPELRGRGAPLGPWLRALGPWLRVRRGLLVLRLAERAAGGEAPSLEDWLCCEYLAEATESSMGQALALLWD
In words: SPR; biotinylated PEAK proteins (with or without Src phosphorylation) captured with a biotin CAPture kit; Grb2 FL, Grb2 SH2, CrkII SH2, CrkII FL monomer or dimer as analytes; Biacore 8K+, 20 °C, HBS-TP with NaCl raised to 500 mM; 1 M NaCl regeneration; steady state. Conditions: remark: other sources report otherwise. For orientation: SPR reads the build-up and loss of mass on a sensor chip optically.

Test [3] concerns the target T2, full length PEAK3 (PEAK3^FL, residues 1-473), from insect cells, phosphorylated by Src (human), Q6ZS72.
T2 chain: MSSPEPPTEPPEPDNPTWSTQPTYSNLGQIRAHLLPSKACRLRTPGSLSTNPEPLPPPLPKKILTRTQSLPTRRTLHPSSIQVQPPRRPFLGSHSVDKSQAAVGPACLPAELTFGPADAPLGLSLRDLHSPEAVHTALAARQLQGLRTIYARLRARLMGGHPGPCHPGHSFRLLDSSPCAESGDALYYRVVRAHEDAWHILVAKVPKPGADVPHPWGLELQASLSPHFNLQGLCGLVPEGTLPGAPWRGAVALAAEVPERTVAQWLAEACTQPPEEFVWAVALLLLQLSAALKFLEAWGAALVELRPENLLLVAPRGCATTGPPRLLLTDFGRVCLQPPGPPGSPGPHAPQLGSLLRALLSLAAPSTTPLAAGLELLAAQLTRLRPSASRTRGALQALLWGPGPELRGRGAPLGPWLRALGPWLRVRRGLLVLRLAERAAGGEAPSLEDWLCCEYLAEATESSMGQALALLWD
The test is described as above. Conditions: remark: other sources report otherwise.

For test [4], the target named is T3, full length PEAK3 (PEAK3^FL, residues 1-473), from E. coli (human), Q6ZS72.
T3 chain: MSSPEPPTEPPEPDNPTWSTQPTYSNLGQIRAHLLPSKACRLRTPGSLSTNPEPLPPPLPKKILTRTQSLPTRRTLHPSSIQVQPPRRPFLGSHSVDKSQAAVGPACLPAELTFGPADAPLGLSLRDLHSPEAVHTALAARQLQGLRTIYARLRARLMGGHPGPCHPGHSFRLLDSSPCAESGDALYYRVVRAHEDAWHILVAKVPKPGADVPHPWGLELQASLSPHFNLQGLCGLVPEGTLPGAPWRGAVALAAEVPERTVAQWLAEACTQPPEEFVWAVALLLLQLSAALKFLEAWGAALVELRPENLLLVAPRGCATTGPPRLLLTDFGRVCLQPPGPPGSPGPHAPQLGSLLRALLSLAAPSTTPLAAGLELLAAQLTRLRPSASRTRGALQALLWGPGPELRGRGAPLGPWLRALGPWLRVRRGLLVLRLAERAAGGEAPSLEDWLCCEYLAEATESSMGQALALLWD
Described as above. To be noted: remark: other sources report otherwise.

Test [5] deals with T4, PEAK3^FL from E. coli, phosphorylated by Src (human), Q6ZS72.
T4 chain: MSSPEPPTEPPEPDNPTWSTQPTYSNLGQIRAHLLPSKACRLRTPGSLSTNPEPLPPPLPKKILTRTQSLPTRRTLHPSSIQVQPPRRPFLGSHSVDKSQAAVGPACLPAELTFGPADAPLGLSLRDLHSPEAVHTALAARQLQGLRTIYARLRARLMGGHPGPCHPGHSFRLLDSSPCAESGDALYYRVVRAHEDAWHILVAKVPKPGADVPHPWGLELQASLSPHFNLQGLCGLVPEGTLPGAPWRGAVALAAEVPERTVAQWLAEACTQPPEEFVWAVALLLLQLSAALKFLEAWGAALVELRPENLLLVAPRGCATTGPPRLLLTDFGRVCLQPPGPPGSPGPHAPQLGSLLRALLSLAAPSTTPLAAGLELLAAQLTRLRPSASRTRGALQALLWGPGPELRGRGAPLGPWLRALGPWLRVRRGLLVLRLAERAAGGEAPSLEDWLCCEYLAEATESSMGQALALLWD
The test can be described thus: SPR. To be noted: natural protein, biotin (EZ-Link NHS-PEG4-Biotin) where immobilised for SPR, phosphotyrosine at 24 (by Src in vitro; the MS/MS was told for PEAK3^FL in general), remark: other sources report otherwise.

Test [6] deals with T5, PEAK3^FL from insect cells, phosphorylated by Src (human), Q6ZS72.
T5 chain: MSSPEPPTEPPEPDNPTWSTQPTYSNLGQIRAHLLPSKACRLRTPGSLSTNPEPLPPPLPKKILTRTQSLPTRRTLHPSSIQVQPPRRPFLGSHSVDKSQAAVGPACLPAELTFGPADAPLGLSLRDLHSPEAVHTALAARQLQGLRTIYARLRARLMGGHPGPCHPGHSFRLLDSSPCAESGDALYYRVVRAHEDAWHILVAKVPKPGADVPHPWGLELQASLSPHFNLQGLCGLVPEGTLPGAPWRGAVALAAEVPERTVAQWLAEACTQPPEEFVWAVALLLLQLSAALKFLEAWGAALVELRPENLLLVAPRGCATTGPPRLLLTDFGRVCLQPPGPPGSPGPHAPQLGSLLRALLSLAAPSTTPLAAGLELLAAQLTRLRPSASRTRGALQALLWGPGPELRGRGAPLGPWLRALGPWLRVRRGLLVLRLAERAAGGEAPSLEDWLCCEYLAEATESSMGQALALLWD
In words: SPR. To be noted: natural protein, biotin (EZ-Link NHS-PEG4-Biotin) where immobilised for SPR, phosphotyrosine at 24 (by Src in vitro, MS/MS), phosphoserine at 69, remark: other sources report otherwise.

Test [7] deals with T6, full length PEAK3 from insect cells (PEAK3^FL, S69 phosphorylated) (human), Q6ZS72.
T6 chain: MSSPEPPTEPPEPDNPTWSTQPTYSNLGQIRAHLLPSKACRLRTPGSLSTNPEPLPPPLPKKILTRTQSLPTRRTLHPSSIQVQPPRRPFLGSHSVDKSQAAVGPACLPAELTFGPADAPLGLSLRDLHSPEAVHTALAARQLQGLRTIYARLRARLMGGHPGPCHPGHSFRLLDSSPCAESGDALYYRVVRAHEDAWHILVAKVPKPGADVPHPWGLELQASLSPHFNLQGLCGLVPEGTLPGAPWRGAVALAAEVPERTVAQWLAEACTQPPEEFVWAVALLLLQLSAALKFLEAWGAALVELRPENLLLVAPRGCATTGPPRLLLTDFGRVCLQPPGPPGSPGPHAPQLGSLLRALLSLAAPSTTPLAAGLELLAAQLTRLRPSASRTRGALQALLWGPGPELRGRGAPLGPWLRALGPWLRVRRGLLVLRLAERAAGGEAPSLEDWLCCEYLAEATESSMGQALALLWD
The test can be described thus: SPR. Conditions: natural protein, biotin (EZ-Link NHS-PEG4-Biotin) where immobilised for SPR, phosphoserine at 69, remark: other sources report otherwise.

Test [8] has as its target full length CrkII, dimer (CrkIIFL dimer) (human), P46108. In words: SEC-MALS; Superdex 200 Increase 10/300 GL, 20 mM HEPES pH 7.5, 150 mM NaCl, 1 mM TCEP, 0.5 ml/min. To be noted: remark: other sources report otherwise. On the technique in general: SEC sorts molecules by how far they enter the pores of the column.
The target in test [9] is 14-3-3η (residues 1-246) (human). The test can be described thus: SPR; 14-3-3 isoforms amine coupled to a CM5 chip, tandem peptides as analytes (10 µM-10 nM for PEAK3 tandem-pS69, 20 µM-20 nM for all others); Biacore S200, 20 °C, HBS-TP; steady state, 1:1 model.
The target of test [10] is 14-3-3γ (residues 1-247) (human). The description is as above.

Non-standard residues stand in square brackets, D forms with d. pT = C[C@@H](OP(=O)(O)O)[C@H](N)C(=O)O

Sequence of 14-3-3σ (sigma) (human) (A8K1N0 whole entry, the tested form may be a part, canonical isoform): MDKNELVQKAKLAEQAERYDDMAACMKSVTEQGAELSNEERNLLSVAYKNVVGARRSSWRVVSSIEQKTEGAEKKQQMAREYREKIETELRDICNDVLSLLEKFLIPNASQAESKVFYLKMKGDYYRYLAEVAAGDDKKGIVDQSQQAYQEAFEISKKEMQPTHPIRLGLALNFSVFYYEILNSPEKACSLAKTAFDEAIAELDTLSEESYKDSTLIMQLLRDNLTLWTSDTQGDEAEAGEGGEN

On to Ac-PPPLPQKKIVSRAASSPDGF-NH2 [PEAK2 tandem peptide, non-phosphorylated (residues 812-831)], for which, in test [1], the Kd (usually a measure of binding affinity in units of concentration) was > 100000 nM.

B1: full length CrkII, dimer (CrkII^FL dimer), P46108-1 1-304 (natural protein)
chain: MAGNFDSEERSSWYWGRLSRQEAVALLQGQRHGVFLVRDSSTSPGDYVLSVSENSRVSHYIINSSGPRPPVPPSPAQPPPGVSPSRLRIGDQEFDSLPALLEFYKIHYLDTTTLIEPVSRSRQGSGVILRQEEAEYVRALFDFNGNDEEDLPFKKGDILRIRDKPEEQWWNAEDSEGKRGMIPVPYVEKYRPASASVSALIGGNQEGSHPQPLGGPEPGPYAQPSVNTPLPNLQNGPIYARVIQKRVPNAYDKTALALEVGELVKVTKINVSGQWEGECNGKRGHFPFTHVRLLDQQNPDEDFS
modifications: here or on the partner: biotin (EZ-Link NHS-PEG4-Biotin, 1:1 molar ratio) where it was immobilised (a1); phosphorylated with Src kinase (Y24 is the site shown for PEAK3^FL by MS/MS); other Src sites not stated; biotin (EZ-Link NHS-PEG4-Biotin, 1:1 molar ratio)
Take B1: the equilibrium dissociation constant (Kd) amounted to 2110 nM in test [2]; 2180 nM in test [3]; 7600 nM in test [4]; 2100 nM in test [5]; 2200 nM in test [6]; 2400 nM in [7].

B2: full length CrkII, dimer (CrkIIFL dimer), P46108-1 1-304 (natural protein)
chain: MAGNFDSEERSSWYWGRLSRQEAVALLQGQRHGVFLVRDSSTSPGDYVLSVSENSRVSHYIINSSGPRPPVPPSPAQPPPGVSPSRLRIGDQEFDSLPALLEFYKIHYLDTTTLIEPVSRSRQGSGVILRQEEAEYVRALFDFNGNDEEDLPFKKGDILRIRDKPEEQWWNAEDSEGKRGMIPVPYVEKYRPASASVSALIGGNQEGSHPQPLGGPEPGPYAQPSVNTPLPNLQNGPIYARVIQKRVPNAYDKTALALEVGELVKVTKINVSGQWEGECNGKRGHFPFTHVRLLDQQNPDEDFS
modifications: here or on the partner: biotin (EZ-Link NHS-PEG4-Biotin) in the SPR experiment only; biotin (EZ-Link NHS-PEG4-Biotin) in the SPR experiment only
With B2, the stoichiometry N (commonly the number of molecules, sites or subunits per partner or assembly) in test [8] worked out at 2.

B3: full length CrkII, monomer (CrkII^FL monomer), P46108-1 1-304 (natural protein)
chain: MAGNFDSEERSSWYWGRLSRQEAVALLQGQRHGVFLVRDSSTSPGDYVLSVSENSRVSHYIINSSGPRPPVPPSPAQPPPGVSPSRLRIGDQEFDSLPALLEFYKIHYLDTTTLIEPVSRSRQGSGVILRQEEAEYVRALFDFNGNDEEDLPFKKGDILRIRDKPEEQWWNAEDSEGKRGMIPVPYVEKYRPASASVSALIGGNQEGSHPQPLGGPEPGPYAQPSVNTPLPNLQNGPIYARVIQKRVPNAYDKTALALEVGELVKVTKINVSGQWEGECNGKRGHFPFTHVRLLDQQNPDEDFS
modifications: here or on the partner: biotin (EZ-Link NHS-PEG4-Biotin, 1:1 molar ratio) where it was immobilised (a1); phosphoserine at S69; phosphotyrosine at Y24 (by Src in vitro, shown by MS/MS); other Src sites not stated; biotin (EZ-Link NHS-PEG4-Biotin, 1:1 molar ratio)
Consider B3, for which the dissociation constant (Kd) in test [3] came to 2700 nM; in test [4], 14100 nM; in test [5] it was 2600 nM; in [7], 12800 nM.
On to Ac-PPPLPKKMIIRANTEPISKD-NH2 [PEAK1 tandem peptide, non-phosphorylated (residues 1152-1171)], for which the dissociation constant (Kd) in test [9], in [10] and in [1] was > 100000 nM throughout.
With Ac-PPPLPKKMIIRAN[pT]EPISKD-NH2 [PEAK1 tandem-pT1165 peptide (residues 1152-1171)], the values for the equilibrium dissociation constant (Kd) in [9], in test [10] and in [1] were 2560 nM, 1770 nM and 9700 nM, respectively.
